# ± gives the uncertainty stated by the source.
# Assay: self-splicing fitness, log relative to wild type (ln ratio); higher = more splicing; Tetrahymena group I intron in knt gene, E. coli kanamycin selection, DiMSum; sequences stand for … in CUCUCU…GGAGGGAAAAGUUAUCAGGCAUGCACCUGGUAGCUAGUCUUUAAACCAAUAGAUUGCAUCGGUUUAAAAGGCAAGACCGUCAAAUUGCGGGAAAGGGGUCAACAGCCGUUCAGUACCAAGUCUCAGGGGAAACUUUGAGAUGGCCUUGCAAAGGGUAUGGUAAUAAGCUGACGGACAUGGUCCUAACCACGCAGCCAAGUCCUAAGUCAACAGAUCUUCUGUUGAUAUGGAUGCAGUUCACAGACUAAAUGUCGGUCGGGGAAGAUGUAUUCUUCUCAUAAGAUAUAGUCGGACCUCUCCUUAAUGGGAGCUAGCGGAUGAAGUGAUGCAACACUGGAGCCGCUGGGAACUAAUUUGUAUGCGAAAGUAUAUUGAUUAGUUUUGGAGUACUCGUGGUCG
# Outline: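 Pooled colonies went to amplicon sequencing on an Illumina HiSeq 2500 after six replicate transformations. The plates were LB agar with 100 μg/mL carbenicillin, 50 μM IPTG and 0.2% rhamnose, with or without 25 μg/mL kanamycin, incubated overnight at 37°C or 30°C. The E. coli BL21(DE3) library had all eight P1ex-region intron nucleotides randomised, the intron placed in the knt kanamycin-resistance gene on pET-22b(+). DiMSum fitness is the error-weighted combination of replicate fold changes, kanamycin against none, normalised to wild type.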
Sequence,self-splicing fitness (ln) (30 °C),self-splicing fitness (ln) (37 °C)
UGACAGCAAUAUUACGAAAG,-3.07 ± 0.25,-2.15 ± 0.2
UGACAGCAAUAUUACGAACA,-0.232 ± 0.081,-0.06 ± 0.087
UGACAGCAAUAUUACGACAU,-1.209 ± 0.012,-0.373 ± 0.032
UGACAGCAAUAUUACGAGAA,,-2.33 ± 0.29
UGACAGCAAUAUUACGAUGU,-4.14 ± 0.17,-2.28 ± 0.14
UGACAGCAAUAUUACGAUUC,-3.35 ± 0.17,-2.09 ± 0.14
UGACAGCAAUAUUACGCCAG,-1.56 ± 0.12,-0.793 ± 0.14
UGACAGCAAUAUUACGCGUA,-0.95 ± 0.094,-0.353 ± 0.089
UGACAGCAAUAUUACGCGUG,-0.925 ± 0.066,0.0478 ± 0.08
UGACAGCAAUAUUACGCUCG,-1.1 ± 0.11,-0.143 ± 0.14
UGACAGCAAUAUUACGCUUU,-3.43 ± 0.2,-2.54 ± 0.26
UGACAGCAAUAUUACGGAAC,-2.81 ± 0.24,-2.42 ± 0.24
UGACAGCAAUAUUACGGCGA,-0.625 ± 0.085,-0.382 ± 0.092
UGACAGCAAUAUUACGUAAU,-2.19 ± 0.099,-0.915 ± 0.15
UGACAGCAAUAUUACGUACC,-1.78 ± 0.12,-0.302 ± 0.14
UGACAGCAAUAUUACGUAGA,-2.29 ± 0.085,-1.14 ± 0.11
UGACAGCAAUAUUACGUAUC,-2.91 ± 0.097,-2.57 ± 0.13
UGACAGCAAUAUUACGUGUA,-1.58 ± 0.081,-0.841 ± 0.081
UGACAGCAAUAUUACGUUAC,-3.81 ± 0.35,-3.32 ± 0.31
UGACAGCAAUAUUACGUUCC,-1.55 ± 0.1,-0.947 ± 0.14
UGAGAGCAAUAUUACGAAAC,,-1.1 ± 0.37
UGAGAGCAAUAUUACGACGG,-2.66 ± 0.2,-2.56 ± 0.25
UGAGAGCAAUAUUACGAGCG,-1.84 ± 0.24,-1.81 ± 0.31
UGAGAGCAAUAUUACGAUUA,-0.816 ± 0.19,-0.653 ± 0.3
UGAGAGCAAUAUUACGCACC,-1.54 ± 0.26,-1.15 ± 0.45

Sequence,self-splicing fitness (ln) (30 °C),self-splicing fitness (ln) (37 °C)
UGAGAGCAAUAUUACGCAUG,-1.65 ± 0.13,-2.09 ± 0.18
UGAGAGCAAUAUUACGCUAA,-2.28 ± 0.31,-2.53 ± 0.31
UGAGAGCAAUAUUACGCUUG,-2.26 ± 0.36,-1.55 ± 0.33
UGAGAGCAAUAUUACGCUUU,-4.15 ± 0.29,-1.96 ± 0.17
UGAGAGCAAUAUUACGGACG,-1.67 ± 0.28,-0.294 ± 0.41
UGAGAGCAAUAUUACGGAUC,-1.94 ± 0.25,-2.32 ± 0.49
UGAGAGCAAUAUUACGGCAU,-2.88 ± 0.23,-2.85 ± 0.33
UGAGAGCAAUAUUACGGCCA,-1.63 ± 0.25,
UGAGAGCAAUAUUACGGGAU,,-1.77 ± 0.37
UGAGAGCAAUAUUACGGGGA,-3.16 ± 0.43,-2.77 ± 0.27
UGAGAGCAAUAUUACGUAGA,-2.94 ± 0.33,-1.28 ± 0.35
UGAGAGCAAUAUUACGUAUU,-3.22 ± 0.34,-1 ± 0.21
UGAGAGCAAUAUUACGUCUC,-1.78 ± 0.38,
UGAGAGCAAUAUUACGUGGG,-2.83 ± 0.29,-1.38 ± 0.2
UGAGAGCAAUAUUACGUUAA,,-2.46 ± 0.3
UGAUAGCAAUAUUACGACAG,-1.41 ± 0.11,-1.59 ± 0.1
UGAUAGCAAUAUUACGACAU,-2.587 ± 0.02,-1.26 ± 0.035
UGAUAGCAAUAUUACGACCA,-2.04 ± 0.23,-0.327 ± 0.37
UGAUAGCAAUAUUACGAGCG,-0.553 ± 0.11,0.433 ± 0.15
UGAUAGCAAUAUUACGAGGA,-3.09 ± 0.3,-2.82 ± 0.48
UGAUAGCAAUAUUACGAGGG,,-2.38 ± 0.4
UGAUAGCAAUAUUACGCAGU,-2.93 ± 0.44,-2.51 ± 0.27
UGAUAGCAAUAUUACGCCCC,-2.85 ± 0.43,-0.875 ± 0.38
UGAUAGCAAUAUUACGCCCU,-0.0785 ± 0.15,0.0233 ± 0.21
UGAUAGCAAUAUUACGCGAC,-3.55 ± 0.28,

Sequence,self-splicing fitness (ln) (30 °C),self-splicing fitness (ln) (37 °C)
UGAUAGCAAUAUUACGCUAG,-1.09 ± 0.081,-0.588 ± 0.078
UGAUAGCAAUAUUACGCUCU,-1.41 ± 0.11,0.193 ± 0.15
UGAUAGCAAUAUUACGGGCA,-0.911 ± 0.075,0.244 ± 0.12
UGAUAGCAAUAUUACGGGCG,-0.568 ± 0.099,0.157 ± 0.1
UGAUAGCAAUAUUACGGGGU,-2.68 ± 0.21,-2.35 ± 0.28
UGAUAGCAAUAUUACGUCAC,-4.14 ± 0.22,-2.81 ± 0.22
UGAUAGCAAUAUUACGUCAU,-3.03 ± 0.27,-2.16 ± 0.2
UGAUAGCAAUAUUACGUGAA,-3 ± 0.17,-1.7 ± 0.16
UGAUAGCAAUAUUACGUGCA,-0.486 ± 0.054,0.164 ± 0.076
UGAUAGCAAUAUUACGUGGU,-2.4 ± 0.21,-2.73 ± 0.23
UGCAAGCAAUAUUACGACCG,0.118 ± 0.086,0.563 ± 0.13
UGCAAGCAAUAUUACGACGA,-0.804 ± 0.074,0.648 ± 0.087
UGCAAGCAAUAUUACGAGGU,-3.41 ± 0.23,-2.26 ± 0.17
UGCAAGCAAUAUUACGAGUG,-1.42 ± 0.052,-0.498 ± 0.062
UGCAAGCAAUAUUACGAUAU,-3.42 ± 0.2,-0.49 ± 0.1
UGCAAGCAAUAUUACGCAAU,-3.55 ± 0.4,-2.06 ± 0.32
UGCAAGCAAUAUUACGCACG,-2.14 ± 0.3,-0.955 ± 0.13
UGCAAGCAAUAUUACGCGAG,-3.25 ± 0.15,-2.36 ± 0.16
UGCAAGCAAUAUUACGCGGU,-3.01 ± 0.23,-2.25 ± 0.21
UGCAAGCAAUAUUACGGAUA,-1.68 ± 0.11,-0.698 ± 0.12
UGCAAGCAAUAUUACGGCCA,-0.252 ± 0.08,1.07 ± 0.14
UGCAAGCAAUAUUACGGCUG,-2.12 ± 0.14,-1.14 ± 0.18
UGCAAGCAAUAUUACGGUUU,-2.53 ± 0.071,-1.28 ± 0.071
UGCAAGCAAUAUUACGUAAA,-1.9 ± 0.087,-1.01 ± 0.12
UGCAAGCAAUAUUACGUAAC,-4.96 ± 0.38,-0.276 ± 0.14

Sequence,self-splicing fitness (ln) (30 °C),self-splicing fitness (ln) (37 °C)
UGCAAGCAAUAUUACGUACU,-0.936 ± 0.13,0.0223 ± 0.17
UGCAAGCAAUAUUACGUCAG,-1.98 ± 0.088,-0.64 ± 0.087
UGCAAGCAAUAUUACGUGGG,-3.73 ± 0.17,-2.93 ± 0.19
UGCCAGCAAUAUUACGACAU,-3.366 ± 0.021,-1.9 ± 0.035
UGCCAGCAAUAUUACGACGC,-3.03 ± 0.22,-1.68 ± 0.25
UGCCAGCAAUAUUACGACGG,-3.23 ± 0.12,-1.42 ± 0.13
UGCCAGCAAUAUUACGACUG,-2.79 ± 0.12,-2.14 ± 0.13
UGCCAGCAAUAUUACGAGAA,,-0.955 ± 0.25
UGCCAGCAAUAUUACGAGAC,-3.05 ± 0.2,-2.05 ± 0.26
UGCCAGCAAUAUUACGAGCC,-0.839 ± 0.087,0.369 ± 0.15
UGCCAGCAAUAUUACGCAAA,-2.41 ± 0.19,-1.5 ± 0.17
UGCCAGCAAUAUUACGCAUA,-1.67 ± 0.088,-1.26 ± 0.087
UGCCAGCAAUAUUACGCAUC,-3.52 ± 0.25,-2.2 ± 0.2
UGCCAGCAAUAUUACGCCAA,-1.24 ± 0.15,-1.8 ± 0.21
UGCCAGCAAUAUUACGCGGU,-2.55 ± 0.3,-2.45 ± 0.25
UGCCAGCAAUAUUACGCUAG,-4.69 ± 0.39,-1.35 ± 0.22
UGCCAGCAAUAUUACGGAUG,-1.21 ± 0.093,-0.248 ± 0.12
UGCCAGCAAUAUUACGGCUG,-3.47 ± 0.15,-2.17 ± 0.16
UGCCAGCAAUAUUACGGUCG,-1.14 ± 0.068,-0.0276 ± 0.075
UGCCAGCAAUAUUACGGUGC,-4.01 ± 0.18,-2.14 ± 0.21
UGCCAGCAAUAUUACGGUUA,-0.355 ± 0.059,0.213 ± 0.066
UGCCAGCAAUAUUACGUACU,0.158 ± 0.14,-1.19 ± 0.19
UGCGAGCAAUAUUACGAACA,-1.47 ± 0.14,0.122 ± 0.18

# — the supplement of paper PMC7877785
